Results as given in article PMC2800223.

Target: GST-HuD (UniProt P26378)
Assay: filter binding

Chain of GST-HuD (P26378 whole entry): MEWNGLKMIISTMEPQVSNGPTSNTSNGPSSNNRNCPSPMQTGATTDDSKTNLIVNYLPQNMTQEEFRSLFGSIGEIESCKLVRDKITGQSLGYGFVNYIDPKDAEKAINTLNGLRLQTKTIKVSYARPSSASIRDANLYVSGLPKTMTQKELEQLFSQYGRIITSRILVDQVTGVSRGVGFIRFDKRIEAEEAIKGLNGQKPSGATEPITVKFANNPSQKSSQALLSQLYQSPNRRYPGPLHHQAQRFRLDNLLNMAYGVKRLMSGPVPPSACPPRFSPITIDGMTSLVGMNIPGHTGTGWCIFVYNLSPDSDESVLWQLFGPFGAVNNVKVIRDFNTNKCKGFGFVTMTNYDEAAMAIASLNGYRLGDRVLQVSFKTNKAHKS

## CCCUCCCUCUCUC [motif 1 oligoribonucleotide]
  Kd: 0.0273 µM

## UUUUGUUUUGUUU [motif 2 oligoribonucleotide]
  Kd: 0.0069 µM
